Target: mixture of three Der p 2 specific recombinant human IgE clones H10, H12, P4E (human) (UniProt P01854)
Test: RBL-SX38 IgE displacement, FACS

Chain of mixture of three Der p 2 specific recombinant human IgE clones H10, H12, P4E (human) (P01854 other isoform, or with tags, fused parts or gaps): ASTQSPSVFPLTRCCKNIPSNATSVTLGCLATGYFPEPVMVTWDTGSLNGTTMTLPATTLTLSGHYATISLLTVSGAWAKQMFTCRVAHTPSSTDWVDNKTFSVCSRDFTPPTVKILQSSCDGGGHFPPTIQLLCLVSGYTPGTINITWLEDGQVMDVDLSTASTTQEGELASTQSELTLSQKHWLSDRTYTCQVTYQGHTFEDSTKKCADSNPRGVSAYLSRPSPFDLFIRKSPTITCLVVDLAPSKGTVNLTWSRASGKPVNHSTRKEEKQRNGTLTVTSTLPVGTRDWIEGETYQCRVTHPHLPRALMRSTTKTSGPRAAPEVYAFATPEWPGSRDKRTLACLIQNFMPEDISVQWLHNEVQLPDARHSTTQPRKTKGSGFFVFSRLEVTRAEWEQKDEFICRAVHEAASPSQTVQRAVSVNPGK

B1: NIgG4F1A1(G4S)3 (Fc fusion)
chain 1: DVQLQESGGGLVQAGGSLKLSCAASGGSLSRYDMGWFRQAPGKEREFVARISWSGTTKYYADAVKGRFAISRDNAKNTVYLQMNSLKPEDTAVYYCAAAFYGNRGYYDVNAYTSSGQGTQVTVSGGGGSGGGGSGGGGSGPPCPPCPAPEFLGGPSVFLFPPKPKDTLMISRTPEVTCVVVDVSQEDPEVQFNWYVDGVEVHNAKTKPREEQFNSTYRVVSVLTVLHQDWLNGKEYKCKVSNKGLPSSIEKTISKAKGQPREPQVYTLPPCQEEMTKNQVSLWCLVKGFYPSDIAVEWESNGQPENNYKTTPPVLDSDGSFFLYSRLTVDKSRWQEGNVFSCSVMHEALHNHYTQKSLSLSLGK
chain 2: EVQLLESGGGLVQPGGSLRLSCAASGFTFGNYDMAWVRQAPGKRPEWVSSIDTGGDITHYADSVKGRFTISRDNAKNTLYLQMNSLRPEDTAVYWCATDEEYALGPNEFDYYGQGTLVTVSSGGGGSGGGGSGGGGSGPPCPPCPAPEFLGGPSVFLFPPKPKDTLMISRTPEVTCVVVDVSQEDPEVQFNWYVDGVEVHNAKTKPREEQFNSTYRVVSVLTVLHQDWLNGKEYKCKVSNKGLPSSIEKTISKAKGQPREPQVCTLPPSQEEMTKNQVSLSCAVKGFYPSDIAVEWESNGQPENNYKTTPPVLDSDGSFFLVSRLTVDKSRWQEGNVFSCSVMHEALHNHYTQKSLSLSLGK
With B1 the EC50 was 35.5 nM and the Max effect/effect 1 µM was 92%.

B2: CIgG4F1A1(G4S)3 (Fc fusion)
chain 1: GPPCPPCPAPEFLGGPSVFLFPPKPKDTLMISRTPEVTCVVVDVSQEDPEVQFNWYVDGVEVHNAKTKPREEQFNSTYRVVSVLTVLHQDWLNGKEYKCKVSNKGLPSSIEKTISKAKGQPREPQVYTLPPCQEEMTKNQVSLWCLVKGFYPSDIAVEWESNGQPENNYKTTPPVLDSDGSFFLYSRLTVDKSRWQEGNVFSCSVMHEALHNHYTQKSLSLSLGKGGGGSGGGGSGGGGSDVQLQESGGGLVQAGGSLKLSCAASGGSLSRYDMGWFRQAPGKEREFVARISWSGTTKYYADAVKGRFAISRDNAKNTVYLQMNSLKPEDTAVYYCAAAFYGNRGYYDVNAYTSSGQGTQVTVS
chain 2: GPPCPPCPAPEFLGGPSVFLFPPKPKDTLMISRTPEVTCVVVDVSQEDPEVQFNWYVDGVEVHNAKTKPREEQFNSTYRVVSVLTVLHQDWLNGKEYKCKVSNKGLPSSIEKTISKAKGQPREPQVCTLPPSQEEMTKNQVSLSCAVKGFYPSDIAVEWESNGQPENNYKTTPPVLDSDGSFFLVSRLTVDKSRWQEGNVFSCSVMHEALHNHYTQKSLSLSLGKGGGGSGGGGSGGGGSEVQLLESGGGLVQPGGSLRLSCAASGFTFGNYDMAWVRQAPGKRPEWVSSIDTGGDITHYADSVKGRFTISRDNAKNTLYLQMNSLRPEDTAVYWCATDEEYALGPNEFDYYGQGTLVTVSS
B2 showed a Max effect/effect 1 µM of 0%.

B3: NIgG4F2A1(G4S)1 (Fc fusion)
chain 1: DVQLQESGGGLVQAGGSLKLSCAASGGSLSRYDMGWFRQAPGKEREFVARISWSGDTKYYADAVEGRFAISRDNAQNTVYLQMNSLKPEDTAVYYCAVALYGNRGYYDVNTYSYWGQGTRVTVSGGGGSGPPCPPCPAPEFLGGPSVFLFPPKPKDTLMISRTPEVTCVVVDVSQEDPEVQFNWYVDGVEVHNAKTKPREEQFNSTYRVVSVLTVLHQDWLNGKEYKCKVSNKGLPSSIEKTISKAKGQPREPQVYTLPPCQEEMTKNQVSLWCLVKGFYPSDIAVEWESNGQPENNYKTTPPVLDSDGSFFLYSRLTVDKSRWQEGNVFSCSVMHEALHNHYTQKSLSLSLGK
chain 2: EVQLLESGGGLVQPGGSLRLSCAASGFTFGNYDMAWVRQAPGKRPEWVSSIDTGGDITHYADSVKGRFTISRDNAKNTLYLQMNSLRPEDTAVYWCATDEEYALGPNEFDYYGQGTLVTVSSGGGGSGPPCPPCPAPEFLGGPSVFLFPPKPKDTLMISRTPEVTCVVVDVSQEDPEVQFNWYVDGVEVHNAKTKPREEQFNSTYRVVSVLTVLHQDWLNGKEYKCKVSNKGLPSSIEKTISKAKGQPREPQVCTLPPSQEEMTKNQVSLSCAVKGFYPSDIAVEWESNGQPENNYKTTPPVLDSDGSFFLVSRLTVDKSRWQEGNVFSCSVMHEALHNHYTQKSLSLSLGK
B3 showed an EC50 of 2 nM and a Max effect/effect 1 µM of 92%.

B4: NIgG4F2A1(G4S)2 (Fc fusion)
chain 1: DVQLQESGGGLVQAGGSLKLSCAASGGSLSRYDMGWFRQAPGKEREFVARISWSGDTKYYADAVEGRFAISRDNAQNTVYLQMNSLKPEDTAVYYCAVALYGNRGYYDVNTYSYWGQGTRVTVSGGGGSGGGGSGPPCPPCPAPEFLGGPSVFLFPPKPKDTLMISRTPEVTCVVVDVSQEDPEVQFNWYVDGVEVHNAKTKPREEQFNSTYRVVSVLTVLHQDWLNGKEYKCKVSNKGLPSSIEKTISKAKGQPREPQVYTLPPCQEEMTKNQVSLWCLVKGFYPSDIAVEWESNGQPENNYKTTPPVLDSDGSFFLYSRLTVDKSRWQEGNVFSCSVMHEALHNHYTQKSLSLSLGK
chain 2: EVQLLESGGGLVQPGGSLRLSCAASGFTFGNYDMAWVRQAPGKRPEWVSSIDTGGDITHYADSVKGRFTISRDNAKNTLYLQMNSLRPEDTAVYWCATDEEYALGPNEFDYYGQGTLVTVSSGGGGSGGGGSGPPCPPCPAPEFLGGPSVFLFPPKPKDTLMISRTPEVTCVVVDVSQEDPEVQFNWYVDGVEVHNAKTKPREEQFNSTYRVVSVLTVLHQDWLNGKEYKCKVSNKGLPSSIEKTISKAKGQPREPQVCTLPPSQEEMTKNQVSLSCAVKGFYPSDIAVEWESNGQPENNYKTTPPVLDSDGSFFLVSRLTVDKSRWQEGNVFSCSVMHEALHNHYTQKSLSLSLGK
For B4, the EC50 was 2 nM and the Max effect/effect 1 µM was 94%.

B5: CIgG4F1A1(G4S)1 (Fc fusion)
chain 1: GPPCPPCPAPEFLGGPSVFLFPPKPKDTLMISRTPEVTCVVVDVSQEDPEVQFNWYVDGVEVHNAKTKPREEQFNSTYRVVSVLTVLHQDWLNGKEYKCKVSNKGLPSSIEKTISKAKGQPREPQVYTLPPCQEEMTKNQVSLWCLVKGFYPSDIAVEWESNGQPENNYKTTPPVLDSDGSFFLYSRLTVDKSRWQEGNVFSCSVMHEALHNHYTQKSLSLSLGKGGGGSDVQLQESGGGLVQAGGSLKLSCAASGGSLSRYDMGWFRQAPGKEREFVARISWSGTTKYYADAVKGRFAISRDNAKNTVYLQMNSLKPEDTAVYYCAAAFYGNRGYYDVNAYTSSGQGTQVTVS
chain 2: GPPCPPCPAPEFLGGPSVFLFPPKPKDTLMISRTPEVTCVVVDVSQEDPEVQFNWYVDGVEVHNAKTKPREEQFNSTYRVVSVLTVLHQDWLNGKEYKCKVSNKGLPSSIEKTISKAKGQPREPQVCTLPPSQEEMTKNQVSLSCAVKGFYPSDIAVEWESNGQPENNYKTTPPVLDSDGSFFLVSRLTVDKSRWQEGNVFSCSVMHEALHNHYTQKSLSLSLGKGGGGSEVQLLESGGGLVQPGGSLRLSCAASGFTFGNYDMAWVRQAPGKRPEWVSSIDTGGDITHYADSVKGRFTISRDNAKNTLYLQMNSLRPEDTAVYWCATDEEYALGPNEFDYYGQGTLVTVSS
In the case of B5, the Max effect/effect 1 µM is reported as 8%.

B6: NIgG4F2A1(RS) (Fc fusion)
chain 1: DVQLQESGGGLVQAGGSLKLSCAASGGSLSRYDMGWFRQAPGKEREFVARISWSGDTKYYADAVEGRFAISRDNAQNTVYLQMNSLKPEDTAVYYCAVALYGNRGYYDVNTYSYWGQGTRVTVSRSGPPCPPCPAPEFLGGPSVFLFPPKPKDTLMISRTPEVTCVVVDVSQEDPEVQFNWYVDGVEVHNAKTKPREEQFNSTYRVVSVLTVLHQDWLNGKEYKCKVSNKGLPSSIEKTISKAKGQPREPQVYTLPPCQEEMTKNQVSLWCLVKGFYPSDIAVEWESNGQPENNYKTTPPVLDSDGSFFLYSRLTVDKSRWQEGNVFSCSVMHEALHNHYTQKSLSLSLGK
chain 2: EVQLLESGGGLVQPGGSLRLSCAASGFTFGNYDMAWVRQAPGKRPEWVSSIDTGGDITHYADSVKGRFTISRDNAKNTLYLQMNSLRPEDTAVYWCATDEEYALGPNEFDYYGQGTLVTVSSRSGPPCPPCPAPEFLGGPSVFLFPPKPKDTLMISRTPEVTCVVVDVSQEDPEVQFNWYVDGVEVHNAKTKPREEQFNSTYRVVSVLTVLHQDWLNGKEYKCKVSNKGLPSSIEKTISKAKGQPREPQVCTLPPSQEEMTKNQVSLSCAVKGFYPSDIAVEWESNGQPENNYKTTPPVLDSDGSFFLVSRLTVDKSRWQEGNVFSCSVMHEALHNHYTQKSLSLSLGK
Binder B6 has an EC50 of 2 nM and a Max effect/effect 1 µM of 88%.

B7: CIgG4F1A1(G4S)2 (Fc fusion)
chain 1: GPPCPPCPAPEFLGGPSVFLFPPKPKDTLMISRTPEVTCVVVDVSQEDPEVQFNWYVDGVEVHNAKTKPREEQFNSTYRVVSVLTVLHQDWLNGKEYKCKVSNKGLPSSIEKTISKAKGQPREPQVYTLPPCQEEMTKNQVSLWCLVKGFYPSDIAVEWESNGQPENNYKTTPPVLDSDGSFFLYSRLTVDKSRWQEGNVFSCSVMHEALHNHYTQKSLSLSLGKGGGGSGGGGSDVQLQESGGGLVQAGGSLKLSCAASGGSLSRYDMGWFRQAPGKEREFVARISWSGTTKYYADAVKGRFAISRDNAKNTVYLQMNSLKPEDTAVYYCAAAFYGNRGYYDVNAYTSSGQGTQVTVS
chain 2: GPPCPPCPAPEFLGGPSVFLFPPKPKDTLMISRTPEVTCVVVDVSQEDPEVQFNWYVDGVEVHNAKTKPREEQFNSTYRVVSVLTVLHQDWLNGKEYKCKVSNKGLPSSIEKTISKAKGQPREPQVCTLPPSQEEMTKNQVSLSCAVKGFYPSDIAVEWESNGQPENNYKTTPPVLDSDGSFFLVSRLTVDKSRWQEGNVFSCSVMHEALHNHYTQKSLSLSLGKGGGGSGGGGSEVQLLESGGGLVQPGGSLRLSCAASGFTFGNYDMAWVRQAPGKRPEWVSSIDTGGDITHYADSVKGRFTISRDNAKNTLYLQMNSLRPEDTAVYWCATDEEYALGPNEFDYYGQGTLVTVSS
Binder B7 has a Max effect/effect 1 µM of 18%.

B8: CIgG4F1A1(RS) (Fc fusion)
chain 1: GPPCPPCPAPEFLGGPSVFLFPPKPKDTLMISRTPEVTCVVVDVSQEDPEVQFNWYVDGVEVHNAKTKPREEQFNSTYRVVSVLTVLHQDWLNGKEYKCKVSNKGLPSSIEKTISKAKGQPREPQVYTLPPCQEEMTKNQVSLWCLVKGFYPSDIAVEWESNGQPENNYKTTPPVLDSDGSFFLYSRLTVDKSRWQEGNVFSCSVMHEALHNHYTQKSLSLSLGKRSDVQLQESGGGLVQAGGSLKLSCAASGGSLSRYDMGWFRQAPGKEREFVARISWSGTTKYYADAVKGRFAISRDNAKNTVYLQMNSLKPEDTAVYYCAAAFYGNRGYYDVNAYTSSGQGTQVTVS
chain 2: GPPCPPCPAPEFLGGPSVFLFPPKPKDTLMISRTPEVTCVVVDVSQEDPEVQFNWYVDGVEVHNAKTKPREEQFNSTYRVVSVLTVLHQDWLNGKEYKCKVSNKGLPSSIEKTISKAKGQPREPQVCTLPPSQEEMTKNQVSLSCAVKGFYPSDIAVEWESNGQPENNYKTTPPVLDSDGSFFLVSRLTVDKSRWQEGNVFSCSVMHEALHNHYTQKSLSLSLGKRSEVQLLESGGGLVQPGGSLRLSCAASGFTFGNYDMAWVRQAPGKRPEWVSSIDTGGDITHYADSVKGRFTISRDNAKNTLYLQMNSLRPEDTAVYWCATDEEYALGPNEFDYYGQGTLVTVSS
With B8 the Max effect/effect 1 µM was 0%.
